From paper PMC11325224, “Organophosphorus S-adenosyl-L-methionine mimetics: synthesis, stability, and substrate properties” (Frontiers in Chemistry, 2024) come the findings set out here.

Counter-ions that a name gives are not always drawn.

As a reminder, the Km is the concentration of substrate that gives half-maximal velocity. One may read the kcat as the maximal rate divided by the concentration of active sites.

In one data set the test system is T1, CI.
T1 construct: engineered variant V140T, recombinant; expression details only in supplement
As to the kind of experiment: Michaelis-Menten kinetics of SAH-PH methylation. The data set is classed as biochemical, Arabidopsis thaliana. To be noted: co-substrate rac-SAH-PH.

A further data set addresses T2, WBSCR27 (Mus musculus, UniProt Q8BGM4).
T2 construct: gene Mettl27; recombinant, 15N-labelled; purification details only in supplement
T2 sequence (Q8BGM4 1-238): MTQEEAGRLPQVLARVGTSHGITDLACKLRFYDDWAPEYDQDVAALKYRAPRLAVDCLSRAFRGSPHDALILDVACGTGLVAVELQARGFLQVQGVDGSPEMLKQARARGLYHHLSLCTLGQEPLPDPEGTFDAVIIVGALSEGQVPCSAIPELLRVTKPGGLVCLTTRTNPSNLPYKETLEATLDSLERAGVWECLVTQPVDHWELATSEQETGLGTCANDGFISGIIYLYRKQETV
As to the kind of experiment: 1H, […] HSQC NMR titration. The data set is classed as binding. To be noted: 15N-labelled apo protein 0.2 mM, ligand 1:1 to 1:5; cofactor site.

For the compound “AtHMT^V140T (Arabidopsis thaliana; V140T)”, in the data set with CI, the Km was 5.3 ± 3 mM and the kcat was 18 ± 2 min⁻¹.
`C[S+](CCC(N)[PH](=O)O)C[C@H]1O[C@@H](n2cnc3c(N)ncnc32)[C@H](O)[C@@H]1O` (mixture of isomers) [rac-SAM-PH, 5′-{S-[3-Amino-3-(hydrohydroxyphosphoryl)propy]-S-methylthionia}-5′-deoxyadenosine hydrochloride]: the “1H,15N HSQC NMR titration” value on WBSCR27 is reported as “WBSCR27 strongly binds to SAM-P H”.
